The labels stand for the following.
T1: human IL-33 (human, UniProt O95760 112-270, limits assumed)
T1 sequence (looked up): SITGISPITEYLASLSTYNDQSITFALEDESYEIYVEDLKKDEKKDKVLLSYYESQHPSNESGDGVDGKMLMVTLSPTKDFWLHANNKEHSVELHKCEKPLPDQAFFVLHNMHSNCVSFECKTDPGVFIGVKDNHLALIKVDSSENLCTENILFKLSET

T2: human IL-33 (His-tagged) (human, UniProt O95760 112-270, limits assumed)
T2 construct: not shown: His tag
T2 sequence (looked up): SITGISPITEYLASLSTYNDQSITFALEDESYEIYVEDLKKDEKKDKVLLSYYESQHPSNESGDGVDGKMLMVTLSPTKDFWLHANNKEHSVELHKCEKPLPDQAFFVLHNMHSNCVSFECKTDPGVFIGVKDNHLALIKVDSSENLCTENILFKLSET

B1: 1E1v4 (antibody, human IgG1, V domains shown)
VH: EVQLVESGGGLVQPGGSLRLSCAASGFTFNNYWMTWIRQAPGKGLEWIASITYTGGGTYYPDSVKGRFTISRDDAKSSLYLQMNSLRAEDTAVYYCTRANYYYNTYGGFPYWGQGTLVTVSS
VL: DIQMTQSPSSLSASVGDRVTITCLASEGFSNDLAWYQQKPGKSPKLLIYAASRLQDGVPSRFSGSGSGTDFTLTISSLQPEDFATYFCQQGSKYPLTFGGGTKVEIK
notes: Humanized 1E1 variant, human IgG1 backbone, expressed in Expi293F
B2: 1E1v9 (antibody, human IgG1, V domains shown)
VH: EVQLVESGGGLVQPGGSLRLSCAASGFTFNNYWMTWIRQAPGKGLEWIASITYTGGGTYYPDSVKGRFTISRDDAKSSLYLQMNSLRAEDTAVYYCTRANYYYNTYGGFPYWGQGTLVTVSS
VL: DIQMTQSPSSLSASVGDRVTITCLASEGFSNDLAWYQQKPGKAPKSLIYAASRLQDGVPSRFSGSGSGTDFTLTISSLQPEDFATYFCQQGSKYPLTFGGGTKVEIK
notes: as for B1
B3: 1E1v8 (human IgG1) (antibody, V domains shown)
VH: EVQLVESGGGLVQPGGSLRLSCAASGFTFNNYWMTWIRQAPGKGLEWVASITYTGGGTYYPDSVKGRFTISRDDAKSSLYLQMNSLRAEDTAVYYCTRANYYYNTYGGFPYWGQGTLVTVSS
VL: DIQMTQSPSSLSASVGDRVTITCLASEGFSNDLAWYQQKPGKSPKLLIYAASRLQDGVPSRFSGSGSGTDFTLTISSLQPEDFATYFCQQGSKYPLTFGGGTKVEIK
B4: 1E1v10 (antibody, human IgG1, V domains shown)
VH: EVQLVESGGGLVQPGGSLRLSCAASGFTFNNYWMTWVRQAPGKGLEWVASITYTGGGTYYPDSVKGRFTISRDDAKSSLYLQMNSLRAEDTAVYYCTRANYYYNTYGGFPYWGQGTLVTVSS
VL: DIQMTQSPSSLSASVGDRVTITCLASEGFSNDLAWYQQKPGKAPKSLIYAASRLQDGVPSRFSGSGSGTDFTLTISSLQPEDFATYFCQQGSKYPLTFGGGTKVEIK
notes: as for B1
B5: 1E1v5 (antibody, human IgG1, V domains shown)
VH: EVQLVESGGGLVQPGGSLRLSCAASGFTFNNYWMTWVRQAPGKGLEWVASITYTGGGTYYPDSVKGRFTISRDDAKSSLYLQMNSLRAEDTAVYYCTRANYYYNTYGGFPYWGQGTLVTVSS
VL: DIQMTQSPSSLSASVGDRVTITCLASEGFSNDLAWYQQKPGKSPKLLIYAASRLQDGVPSRFSGSGSGTDFTLTISSLQPEDFATYFCQQGSKYPLTFGGGTKVEIK
notes: as for B1
B6: 1E1v3 (antibody, human IgG1, V domains shown)
VH: EVQLVESGGGLVQPGGSLRLSCAASGFTFNNYWMTWVRQAPGKGLEWVASITYTGGGTYYPDSVKGRFTISRDNAKNSLYLQMNSLRAEDTAVYYCTRANYYYNTYGGFPYWGQGTLVTVSS
VL: DIQMTQSPSSLSASVGDRVTITCLASEGFSNDLAWYQQKPGKSPKLLIYAASRLQDGVPSRFSGSGSGTDFTLTISSLQPEDFATYFCQQGSKYPLTFGGGTKVEIK
notes: as for B1
B7: 1E1v1 (antibody, human IgG1, V domains shown)
VH: EVQLVESGGGLVQPGGSLRLSCAASGFTFNNYWMTWVRQAPGKGLEWVASITYTGGGTYYPDSVKGRFTISRDNAKNSLYLQMNSLRAEDTAVYYCTRANYYYNTYGGFPYWGQGTLVTVSS
VL: DIQMTQSPSSLSASVGDRVTITCLASEGFSNDLAWFQQKPGKAPKSLIYAASRLQDGVPSRFSGSGSGTDFTLTISSLQPEDFATYYCQQGSKYPLTFGGGTKVEIK
notes: as for B1
B8: 1E1v16 (antibody, human IgG1, V domains shown)
VH: EVQLVESGGGLVQPGGSLRLSCAASGFTFNNYWMTWVRQAPGKGLEWVASITYTGGGTYYPDSVKGRFTISRDDAKNSLYLQMNSLRAEDTAVYYCTRANYYYNTYGGFPYWGQGTLVTVSS
VL: DIQMTQSPSSLSASVGDRVTITCLASEGFSNDLAWFQQKPGKAPKSLIYAASRLQDGVPSRFSGSGSGTDFTLTISSLQPEDFATYFCQQGSKYPLTFGGGTKVEIK
notes: as for B1
B9: 1E1v11 (antibody, human IgG1, V domains shown)
VH: EVQLVESGGGLVQPGGSLRLSCAASGFTFNNYWMTWVRQAPGKGLEWVASITYTGGGTYYPDSVKGRFTISRDDAKNSLYLQMNSLRAEDTAVYYCTRANYYYNTYGGFPYWGQGTLVTVSS
VL: DIQMTQSPSSLSASVGDRVTITCLASEGFSNDLAWYQQKPGKAPKSLIYAASRLQDGVPSRFSGSGSGTDFTLTISSLQPEDFATYFCQQGSKYPLTFGGGTKVEIK
notes: as for B1
B10: 1E1v7 (antibody, human IgG1, V domains shown)
VH: EVQLVESGGGLVQPGGSLRLSCAASGFTFNNYWMTWVRQAPGKGLEWVASITYTGGGTYYPDSVKGRFTISRDNAKSSLYLQMNSLRAEDTAVYYCTRANYYYNTYGGFPYWGQGTLVTVSS
VL: DIQMTQSPSSLSASVGDRVTITCLASEGFSNDLAWYQQKPGKSPKLLIYAASRLQDGVPSRFSGSGSGTDFTLTISSLQPEDFATYFCQQGSKYPLTFGGGTKVEIK
notes: as for B1
B11: 1E1v6 (antibody, human IgG1, V domains shown)
VH: EVQLVESGGGLVQPGGSLRLSCAASGFTFNNYWMTWVRQAPGKGLEWVASITYTGGGTYYPDSVKGRFTISRDDAKNSLYLQMNSLRAEDTAVYYCTRANYYYNTYGGFPYWGQGTLVTVSS
VL: DIQMTQSPSSLSASVGDRVTITCLASEGFSNDLAWYQQKPGKSPKLLIYAASRLQDGVPSRFSGSGSGTDFTLTISSLQPEDFATYFCQQGSKYPLTFGGGTKVEIK
notes: as for B1
B12: 1E1v17 (antibody, human IgG1, V domains shown)
VH: EVQLVESGGGLVQPGGSLRLSCAASGFTFNNYWMTWVRQAPGKGLEWVASITYTGGGTYYPDSVKGRFTISRDNAKSSLYLQMNSLRAEDTAVYYCTRANYYYNTYGGFPYWGQGTLVTVSS
VL: DIQMTQSPSSLSASVGDRVTITCLASEGFSNDLAWFQQKPGKAPKSLIYAASRLQDGVPSRFSGSGSGTDFTLTISSLQPEDFATYFCQQGSKYPLTFGGGTKVEIK
notes: as for B1
B13: 1E1v15 (antibody, human IgG1, V domains shown)
VH: EVQLVESGGGLVQPGGSLRLSCAASGFTFNNYWMTWVRQAPGKGLEWVASITYTGGGTYYPDSVKGRFTISRDDAKSSLYLQMNSLRAEDTAVYYCTRANYYYNTYGGFPYWGQGTLVTVSS
VL: DIQMTQSPSSLSASVGDRVTITCLASEGFSNDLAWFQQKPGKAPKSLIYAASRLQDGVPSRFSGSGSGTDFTLTISSLQPEDFATYFCQQGSKYPLTFGGGTKVEIK
notes: as for B1
B14: 1E1v2 (antibody, human IgG1, V domains shown)
VH: EVQLVESGGGLVQPGGSLRLSCAASGFTFNNYWMTWIRQAPGKGLEWIASITYTGGGTYYPDSVKGRFTISRDDAKSSLYLQMNSLRAEDTAVYYCTRANYYYNTYGGFPYWGQGTLVTVSS
VL: DIQMTQSPSSLSASVGDRVTITCLASEGFSNDLAWFQQKPGKAPKSLIYAASRLQDGVPSRFSGSGSGTDFTLTISSLQPEDFATYYCQQGSKYPLTFGGGTKVEIK
notes: as for B1
B15: 1E1v23 (antibody, human IgG1, V domains shown)
VH: EVQLVESGGGLVQPGGSLRLSCAASGFTFNNYWMTWVRQAPGKGLEWIASITYTGGGTYYPDSVKGRFTISRDDAKSSLYLQMNSLRAEDTAVYYCTRANYYYNTYGGFPYWGQGTLVTVSS
VL: DIQMTQSPSSLSASVGDRVTITCLASEGFSNDLAWYQQKPGKAPKSLIYAASRLQDGVPSRFSGSGSGTDFTLTISSLQPEDFATYYCQQGSKYPLTFGGGTKVEIK
notes: as for B1
B16: 1E1v22 (antibody, human IgG1, V domains shown)
VH: EVQLVESGGGLVQPGGSLRLSCAASGFTFNNYWMTWVRQAPGKGLEWVASITYTGGGTYYPDSVKGRFTISRDNAKSSLYLQMNSLRAEDTAVYYCTRANYYYNTYGGFPYWGQGTLVTVSS
VL: DIQMTQSPSSLSASVGDRVTITCLASEGFSNDLAWYQQKPGKAPKSLIYAASRLQDGVPSRFSGSGSGTDFTLTISSLQPEDFATYYCQQGSKYPLTFGGGTKVEIK
notes: as for B1
B17: 1E1v18 (antibody, human IgG1, V domains shown)
VH: EVQLVESGGGLVQPGGSLRLSCAASGFTFNNYWMTWVRQAPGKGLEWIASITYTGGGTYYPDSVKGRFTISRDDAKSSLYLQMNSLRAEDTAVYYCTRANYYYNTYGGFPYWGQGTLVTVSS
VL: DIQMTQSPSSLSASVGDRVTITCLASEGFSNDLAWFQQKPGKAPKSLIYAASRLQDGVPSRFSGSGSGTDFTLTISSLQPEDFATYFCQQGSKYPLTFGGGTKVEIK
notes: as for B1
B18: 1E1v14 (antibody, human IgG1, V domains shown)
VH: EVQLVESGGGLVQPGGSLRLSCAASGFTFNNYWMTWIRQAPGKGLEWIASITYTGGGTYYPDSVKGRFTISRDDAKSSLYLQMNSLRAEDTAVYYCTRANYYYNTYGGFPYWGQGTLVTVSS
VL: DIQMTQSPSSLSASVGDRVTITCLASEGFSNDLAWFQQKPGKAPKSLIYAASRLQDGVPSRFSGSGSGTDFTLTISSLQPEDFATYFCQQGSKYPLTFGGGTKVEIK
notes: as for B1

The first test has as its target T1, human IL-33. Briefly: cell-based or functional assay.
As for B1, the “IC50 (M), IL-33 neutralization activity, HEK-BLUE IL-33 cells, human IL-33 at 160 pM” value (“IC50 (M), IL-33 neutralization activity” below) amounted to 3.11e-11 M.
For B2, the “IC50 (M), IL-33 neutralization activity” value was 3.05e-11 M.
With B3, the “IC50 (M), IL-33 neutralization activity” value stood at 3.11e-11 M.

Another test concerns the target T2, human IL-33 (His-tagged). Briefly: SPR Biacore T200, IgG captured on protein A chip, His-tagged human IL-33 analyte, 25 C, n=2; column head prints 'KD (nM)' but the E-notation cells are in M, unit corrected to M. How it is done:
A protein A sensorchip (GE Healthcare) was used following manufacturer provided protocols to capture humanized anti-IL-33 antibodies using a BIACORE® T200 instrument (GE). Antibody binding was measured to human IL-33 (His-tagged) using multi-cycle kinetics. Sensorgrams for binding of IL-33 were recorded using an injection time of 2 min with a flow rate of 30 μl/min, at a temperature of 25° C., and with a running buffer of 10 mM HEPES, pH 7.4, 150 mM NaCl, 3 mM EDTA, and 0.005% TWEEN620. After injection, disassociation of IL-33 from the antibody was monitored for 10 min in running buffer. The surface was regenerated between binding cycles with a 30 μl injection of 10 mM Glycine HCl pH 1.5. After subtraction of a blank which contained running buffer only, sensorgrams observed for cytokine binding to anti-IL-33 antibody were analyzed using a 1:1 Langmuir binding model with software supplied by the manufacturer to calculate the kinetics and binding constants.
With B4, the Kd was 0.121 nM.
For the molecule B5, the Kd was determined as 0.144 nM.
Regarding B6, the equilibrium dissociation constant (Kd) came out at 0.149 nM.
Take B7: binding was characterised by a dissociation constant (Kd) of 0.295 nM.
For B1, binding was characterised by a dissociation constant (Kd) of 0.154 nM.
On the same count and under the same terms, under B8 stands 0.179 nM; under B9, 0.123 nM; under B10, 0.144 nM.
Still for that read-out and setting: under B2 stands 0.129 nM; under B11, 0.132 nM.
B3 had an equilibrium dissociation constant (Kd) of 0.118 nM.
The molecule B12 came in with an equilibrium dissociation constant (Kd) of 0.285 nM.
On the same count and under the same terms, then B13, with 0.195 nM; and B14, with 0.203 nM.
B15 had a Kd of 0.151 nM.
B16 came in with a Kd of 0.146 nM.
B17 showed a Kd of 0.172 nM.
As to B18, the Kd turned out to be 0.163 nM.

Source of the values: patent US20210284725A1 (Genentech, published 2021).
